Test results: the RNAGym collection of RNA variant scans (doi:10.1073/pnas.2313332121)
This sample holds only a part of the variants without activity.

B1: TPR 5TU (parent)
chain: GGAUCUUCUCGAUCUAACAAAAAAGACAAAUCUGCCACAAAGCUUGAGAGCAUCUUCGGAUGCAGAGGCGGCAGCCUUCGGUGGCGCGAUAGCGCCAACGUUCUCAACUAUGACACGCAAAACGCGUGCUCCGUUGAAUGGAGUUUAUCAUG

Variants of: B1
Assay: polymerase ribozyme fitness, log enrichment relative to wild type (log ratio); higher = more active; in vitro selection for triplet polymerase activity
Method in brief: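 A heterodimeric triplet polymerase ribozyme had each of its subunits mutagenized by PCR into a library, which was transcribed. One round of in vitro selection, done in triplicate, annealed each library with a biotinylated primer, its partner subunit and triplets, then incubated it frozen at −7 °C before gel excision of extended constructs, streptavidin-bead capture and RT-PCR. Fitness is the logarithm of genotype enrichment relative to wild-type enrichment, based on Illumina sequencing of inputs and outputs and inverse-variance-weighted replicate averages. A base-2 logarithm is used, and genotypes were kept only with ≥10 input reads and ≥1 read per output.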

Variant | polymerase ribozyme fitness (log ratio)
A30U C69G C79A C87G G126A G140C | ≤ -4.2
A30U C35U A52C C96U A107G C108G C114A | ≤ -4.2
A29U C54G U56G A60G | ≤ -4.2
A29U U53C | ≤ -4.2
A29U U53A | -4.15
A29U C114U A137G G141A U148C | ≤ -4.2
A30C G92A G100C | ≤ -4.2
A30C U111G C129U G136U | ≤ -4.2
A29G A52C C57U C93U | ≤ -4.2
A30U A73U A98U U135G | ≤ -4.2
A30C C36G U77G C116U C125U G133C | ≤ -4.2
A29U C36A A47C C118U U146C | ≤ -4.2
A30U G88C G92U C95A | ≤ -4.2
A30G A41U C69G C76U G94U U102G U130C | ≤ -4.2
A29U U44G A49C C103G G141C | ≤ -4.2
A30U C51G A98U G136U | ≤ -4.2
A29G G46C A47C C132U U146A | -4.16
A30G C35G G59U A113C C131A | ≤ -4.2
A30G C87A A91C A110U A115U U135C | ≤ -4.2
A30C A41C C43U U53A C93U C125U A137G | ≤ -4.2
A30U U53A | -3.18
A29U G42U G84U C114A | ≤ -4.2
A30G A47G U56A G71C G117U A150U | ≤ -4.2
A30G G46C G50U C57U C118G | ≤ -4.2

Variant | polymerase ribozyme fitness (log ratio)
A30U G74A C93G C103A A106G A113U | ≤ -4.2
A29U U44A C85G G124A G152A | ≤ -4.2
A29U G126A | ≤ -4.2
A30C C87G C99G C132A G140U | ≤ -4.2
A30C A91C A98U A119U | ≤ -4.2
A30C G92A U104A A106C C108A | ≤ -4.2
A30C A41C C57A G62C G92A C131G | ≤ -4.2
A30C U31G U82A G92C C103A U134G | ≤ -4.2
A30G A60U C85A C95A C96A C125U A150C | ≤ -4.2
A29U G141C | -3.49
A30G G42A C96G G100A U139C U148C | ≤ -4.2
A30G U44A A49U C87U G88A G92A A115U | ≤ -4.2
A30G C75G C93U A121G | ≤ -4.2
A29U G59A G140A | ≤ -4.2
A29G U55G G94A C108A A119G | ≤ -4.2
A30U U56G U82C G84U C95U | ≤ -4.2
A30G G50C C76U C103G | ≤ -4.2
A30C C35U G88U C116G | -3.99
A30C G46U G94U G143A | ≤ -4.2
A30U C35U G84A | -4.19
A29U G84U U135A | ≤ -4.2
A29U U55A G62C C116G | ≤ -4.2
A30C U53A U78G G84U A137G | ≤ -4.2
A29U A39C A40U U45G U77G | ≤ -4.2

Variant | polymerase ribozyme fitness (log ratio)
A29U G92C U102C C116U | ≤ -4.2
A29G C103G U104G | ≤ -4.2
A29G A60C A89G A110U G143A | ≤ -4.2
A29U G46U G70U U90G C95U A115G G117U A120U | ≤ -4.2
U31A A49C C93U C118A A121U | ≤ -4.2
A29U G48A U61G G84U C85A C105U G126U | ≤ -4.2
U31A A91G U144G | -1.84
A30U G70A | ≤ -4.2
A30C C87G U101C | ≤ -4.2
A30G A138G | ≤ -4.2
A30U G92U | -3.52
A29U U31A U56G A66G C96U C105A A138U | ≤ -4.2
U31A A39G G94U | -2.07
A29U A37G C54U C87G C116A | ≤ -4.2
A29U A49C G68U A73C A91C C103G | ≤ -4.2
A29U C95A | -3.68
A29U C95U | -3.54
A30G C85U G128A | ≤ -4.2
A30U U101G | -3.89
A29G U31C C36U C54G U82C G86C C93U | ≤ -4.2
A30C C75G U78G C95G | ≤ -4.2
A30C C95G C108U C132G G133U | ≤ -4.2
A30U A40U C87G C103G G141A | -3.9
A30C A39U U44A U53A C93A | ≤ -4.2

Variant | polymerase ribozyme fitness (log ratio)
A29U C38U G86A | ≤ -4.2
A30G A49C C93G | ≤ -4.2
U31A A66C G67C G88A G141A U146G | ≤ -4.2
A30C C35U G59A G88U G117A | ≤ -4.2
A30U U77G G84U C129G G152C | ≤ -4.2
A30G C85U U134C | -3.93
A29G C43A G48C C93G G126C | ≤ -4.2
A30U C36A C85U G92A C96A | ≤ -4.2
A29U A89U G94A C116G G141A | ≤ -4.2
A29U U101G U104G | ≤ -4.2
A30U A49C G58A A119C G128U U134G | ≤ -4.2
A30C G42A C54U G58A U90G C93G C96U C125A U148A | ≤ -4.2
A29U C54U G62A A113G U139G U148A | ≤ -4.2
A30C U55G C95A U135G U148A | -3.85
A30G U82G A122G U146G | -4.18
A29U C96U G136U | ≤ -4.2
A29U G71C C93U U109G G124C | ≤ -4.2
A29U C93G | ≤ -4.2
A30U G86U | ≤ -4.2
A30U A52G G67U C132U | ≤ -4.2
A30G U33G U82C C103A U144A | ≤ -4.2
U31A A40G U44G G141C | -4.06
A30G G50U U55G U82A | ≤ -4.2
A30G C79U G124U U135A | ≤ -4.2

Variant | polymerase ribozyme fitness (log ratio)
A30G A41C | -3.51
U31A A49C C99G C108G | ≤ -4.2
A29G A73U A91G C99U A115U A137U | ≤ -4.2
A30C G46U C95G U102G | ≤ -4.2
A30C C95G A119U C132U | ≤ -4.2
A29U G59U C93U | ≤ -4.2
A30C C79U A91G C114U G136C | ≤ -4.2
A29U C35G G71C | ≤ -4.2
A30G C38A C57A G58C U78G A97G U101C U102G | ≤ -4.2
A30U G42U A119G A138G | ≤ -4.2
A30C C57U G81C C87G A97U U109G G141A | ≤ -4.2
A29U A47C U55G C87U A98G | ≤ -4.2
A30G C95G | -3.11
A29C U56A G80U A121G | ≤ -4.2
A30G C85U | -3.06
A30U G46U U55G C79A U101G C108G C116U A119G G136U | ≤ -4.2
A29U A52G U55C U134A | ≤ -4.2
A30C C63U A66C A73U C85A A91C U109G | ≤ -4.2
A30U G94C A150U | -3.55
A29U A40G | -4.2
A30U G50C | ≤ -4.2
A29U C76A C87A C93A C129A | ≤ -4.2
A30U U45A G94U C131G | ≤ -4.2
A29G U56A U77C | ≤ -4.2

Variant | polymerase ribozyme fitness (log ratio)
A30C C87A | ≤ -4.2
A29U A40C G46A G67A G81A C85G A113C A137G | ≤ -4.2
A29U A64C C85G | ≤ -4.2
A29G A30U C43U G50A G67U C79G G88U C99A G141A | ≤ -4.2
A29G A41C A47G C85G G92U U104G A137G G141U | ≤ -4.2
A30U A52C U82A U101A G128A G136U G141C | ≤ -4.2
A29U A37C G80A G88C G133U | ≤ -4.2
A29U U104C | -4.14
A29U G50C A52C A64C U77C G92C G94A C95A A115C U139G | ≤ -4.2
A30U G58A C87U U90G U101A A110C G112A G126U | ≤ -4.2
A30U A49G | ≤ -4.2
A30U U55G C63U A110U G126U | -4.07
A30G G86A | -3.45
A29G C35A U56C C69G G71U A91G A98U A138G | ≤ -4.2
A29G G50A G67U C75G C85A C123G C125G C132U A142C | ≤ -4.2
A29U A52C G68C C96U C99G A121U G126A A150U | ≤ -4.2
A30U G94C A121G | -3.43
A30C C43G U45A C87A C103A | ≤ -4.2
A29U C103U | ≤ -4.2
A30G A39U A52G U55G | -4.08
A30C C96G | -4.03
A29U U31G C72U G83C | ≤ -4.2
A29U G58U U61A U82A G86A A119G | ≤ -4.2
A29U A37U C72G C95U C114U G143U | ≤ -4.2

Variant | polymerase ribozyme fitness (log ratio)
A29U A91U | ≤ -4.2
A29G C95G U127G | ≤ -4.2
A29G G50A A52C U101G G133C | ≤ -4.2
A30G G74U C93A U102C U127G C129G U144G | ≤ -4.2
A30G C76A C95A | ≤ -4.2
A30U C69U C85U A106G C123U A137G | ≤ -4.2
A30U C54A U55G G86C C105A A119G G136U A142U | ≤ -4.2
A30G C32A C43A C93A C105A | ≤ -4.2
A29U A40U G68U C69U G92A G140C | ≤ -4.2
A29U U33A U102G A113U U144C | ≤ -4.2
A30U U134C | -3.45
A30G A66G C108G | ≤ -4.2
U31A | 0.37
A30C A52G A106C U146C | ≤ -4.2
A30C A52C G83U G84C U135A G141C | ≤ -4.2
A30U U56A G59A G94U C125A U127A U144A | ≤ -4.2
A30G A49C G88U A110G | ≤ -4.2
A30U C75G G84U C103G G124C | ≤ -4.2
A30U C87U | -3.22
A29U U45A G94C C105A A113U U130G U135G | ≤ -4.2
A30G A52C U53C C93A G100C C132A | ≤ -4.2
A29G C69U | ≤ -4.2
A29U G84A | ≤ -4.2
